Biological target: wild-type human Elp123 sub-complex (hElp123WT) (human) (UniProt O95163)
Assay: SEC; gel filtration of purified hElp123 on Superose 6 Increase 10/300 GL; 20 mM HEPES, 150 mM NaCl, 5 mM DTT, pH 8.0; Elp1-Elp2-Elp3 trimer to dimer of trimers

Q: For “wild-type human Elp123 sub-complex (hElp123WT), O95163 1-1332; Q6IA86 1-826; Q9H9T3 1-547”, which stoichiometry N is on record?
A: 2

Reference: PMC8113450
